What is called Kd is the equilibrium constant for the complex coming apart.

For three molecules, Kd results are on record in patent US20190083662A1 (CENTRE FOR PROBE DEVELOPMENT AND COMMERCIALIZATION, published 2019).

The target in this assay is T1, insulin-like growth factor-1 receptor (IGF-1R) (human, UniProt P08069 31-1367).
T1 construct: whole, on cells; Endogenous receptor on A431 cells ('IGF-1R expressing A431 cell line'); also called IGF-1 receptor
In words: saturation radioligand binding on A431 cells, 4 C, specific binding fitted to a single-site hyperbola. Here is the method: Nonspecific binding is typically assessed by measuring radioconjugate binding in the presence of a fixed concentration of HumIGF-1R that binds to essentially all the receptors. Since all the receptors are occupied by the HumIGF-1R, the radioconjugate only binds nonspecifically. Kd and Bₘₐₓ values are calculated by nonlinear regression analysis and computerized curve fitting.
The purpose of this assay was to ensure that these new radioconjugates maintained binding characteristics consistent with the native antibody in an IGF-1R expressing A431 cell line. Twenty-four hours prior to the start of the experiment, 1.5×10⁵ A431 cells were seeded in 48-well microplates in 500 μl supplemented medium. The radioconjugate was diluted with binding buffer (PBS+0.5% BSA) to a range of concentrations from 0.08 nM to 40 nM; final assay concentration 0.04 to 20 nM. At the start of the assay, the media is aspirated, discarded and 500 μI of serum-free DMEM was added to each well. The plates were incubated at 37° C. for 1 hour. Following incubation, media was aspirated from each well and discarded. The cells were washed and 100 μI of binding buffer (total binding) or 4 μM cold-antibody (non-specific binding) added to designated wells. Plates were incubated at 4° C. for 1 hour with mild shaking. […] The lysates were transferred to counting tubes and run with radioconjugate standards on the Wizard 1470 gamma counter to determine the radioactivity content (in counts per minute (CPM)) for each lysate. The remaining lysate from each well (25 μI) was transferred to a 96-well plate, and the protein content of each lysate determined using a standard protein quantification assay. Total, non-specific and specific ligand binding determinations, mass of bound conjugate in each lysate were calculated by converting lysate CPM to fmol bound using the specific activity of the conjugate standards and then normalizing the fmol bound to the protein content of each lysate(in milligrams). Specific binding was determined by subtracting the non-specific binding from total binding.

T1 sequence (P08069 31-1367): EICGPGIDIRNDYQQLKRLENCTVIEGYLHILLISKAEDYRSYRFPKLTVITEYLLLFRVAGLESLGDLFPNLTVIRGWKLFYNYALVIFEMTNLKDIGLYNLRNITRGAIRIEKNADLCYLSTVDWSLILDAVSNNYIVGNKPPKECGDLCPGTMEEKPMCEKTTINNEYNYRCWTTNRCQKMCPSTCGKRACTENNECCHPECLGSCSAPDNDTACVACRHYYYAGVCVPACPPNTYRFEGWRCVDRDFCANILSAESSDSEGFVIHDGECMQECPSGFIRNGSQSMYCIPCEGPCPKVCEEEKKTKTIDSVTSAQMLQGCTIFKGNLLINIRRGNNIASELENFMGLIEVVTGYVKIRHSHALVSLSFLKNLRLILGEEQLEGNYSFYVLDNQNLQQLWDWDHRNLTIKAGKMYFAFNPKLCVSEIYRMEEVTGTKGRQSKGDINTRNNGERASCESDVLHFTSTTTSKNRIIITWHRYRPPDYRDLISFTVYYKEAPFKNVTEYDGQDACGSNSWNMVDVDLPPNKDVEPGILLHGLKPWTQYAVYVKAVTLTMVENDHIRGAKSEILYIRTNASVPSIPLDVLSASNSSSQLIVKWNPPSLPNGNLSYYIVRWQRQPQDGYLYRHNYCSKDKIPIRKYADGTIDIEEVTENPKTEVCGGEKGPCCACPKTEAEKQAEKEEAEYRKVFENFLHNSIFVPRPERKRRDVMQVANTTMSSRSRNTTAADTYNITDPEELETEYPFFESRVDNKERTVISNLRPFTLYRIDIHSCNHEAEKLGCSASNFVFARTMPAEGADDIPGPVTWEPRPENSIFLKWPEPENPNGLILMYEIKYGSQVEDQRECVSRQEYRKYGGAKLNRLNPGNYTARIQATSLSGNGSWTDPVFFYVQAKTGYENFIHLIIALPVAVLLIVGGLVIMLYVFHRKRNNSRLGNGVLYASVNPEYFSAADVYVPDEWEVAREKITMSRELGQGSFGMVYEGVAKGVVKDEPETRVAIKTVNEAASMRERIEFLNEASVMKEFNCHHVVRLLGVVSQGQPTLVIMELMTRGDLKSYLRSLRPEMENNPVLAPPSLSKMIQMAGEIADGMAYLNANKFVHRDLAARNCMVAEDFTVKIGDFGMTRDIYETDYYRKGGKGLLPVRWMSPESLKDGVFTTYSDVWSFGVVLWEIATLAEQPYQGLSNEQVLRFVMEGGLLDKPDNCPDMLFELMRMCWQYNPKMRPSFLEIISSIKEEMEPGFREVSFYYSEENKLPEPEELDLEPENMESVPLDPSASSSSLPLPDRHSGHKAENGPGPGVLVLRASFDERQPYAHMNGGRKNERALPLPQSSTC

B1: [^177Lu]-Compound A-HuMIGF-1R (antibody, V domains shown)
VH: QVQLVQSGAEVVKPGASVKLSCKASGYTFTSYWMHWVKQRPGQGLEWIGEINPSNGRTNYNQKFQGKATLTVDKSSSTAYMQLSSLTSEDSAVYYFARGRPDYYGSSKWYFDVWGQGTTVTVSSASTKGPSVFPLAPSSKSTSGGTAALG
VL: DVVMTQTPLSLPVSLGDPASISCRSSQSIVHSNVNTYLEWYLQKPGQSPRLLIYKVSNRFSGVPDRFSGSGAGTDFTLRISRVEAEDLGIYYCFQGSHVPPTFGGGTKLEIKRTVAAPSVFIFPPSDEQLKSGTASVVCLLNNFYPREAK
notes: Whole antibody HuMIGF-1R (AVE1642, humanized EM164; MALDI m/z about 149835) conjugated with the chelate Compound A (DOTA-GA anhydride) and loaded with 177Lu; also called 177Lu-DOTA-GA-AVE1642; (Compound A)-HuMIGF-1R radiolabelled with Lu-177
On to B1, for which the Kd was found to be 2.9 nM.

B2: [^177Lu]-Compound B-HuMIGF-1R (antibody, V domains shown)
VH: B1 VH
VL: B1 VL
notes: Whole antibody HuMIGF-1R (AVE1642) conjugated with the chelate Compound B (DOTA-GA with an 11-aminoundecanoyl linker, TFP ester) and loaded with 177Lu; also called Compound B-HuMIGF-1R radiolabelled with Lu-177
Turning to B2, the Kd was determined as 2 nM.

B3: [^177Lu]-Compound C-HuMIGF-1R (antibody, V domains shown)
VH: B1 VH
VL: B1 VL
notes: Whole antibody HuMIGF-1R (AVE1642) conjugated with the chelate Compound C (DOTA-GA with a PEG3 linker, TFP ester) and loaded with 177Lu; also called Compound C-HuMIGF-1R radiolabelled with Lu-177
For B3, the Kd stood at 2.2 nM.
